# Measured values as given in the domain aggregation screens of Martell et al. (2025).
# Assay: soluble fraction after stress (log2 fold change); higher = more stays soluble; pooled small domains, quantitative proteomics
# Details: stress: pH 4
# Method in brief: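 Values are log2 fold changes, and higher ones mean more of the domain stayed soluble. Each fold change reflects the soluble amount of a domain after acid stress and is taken as a measure of aggregation propensity. The stress was pH 4, applied to pooled custom libraries of small protein domains analysed by high-throughput quantitative proteomics.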
row,Sequence,soluble fraction (log2)
1,HMLRNDEAVMLGRRLLNKHLQAFSVQIKDISHQRIHDLLDELELESLDHLLDDIGLGNRSVFLVAQKLLQ,-1.25
2,HMLRQRVFRIIQNNINSKNYFVYTKQILAELAGISMRSLNRTLSELQNDRLIIVDSGTIRLFT,-0.824
3,HMLRVGASVTANGKYWYDSYGSKPFGTANNLSTTVTRIVPGNPYPIHIGSYGWLQESQIQIT,0.204
4,HMLSDADLAAFREVFDLVDKDKSGAIEMEEVEELTKLLGLDLTRDEVELLVREIDKDGNGEVDFEEFLLVM,-0.115
5,HMLSDHGLNDRQIMVIAGLMNGGTVTVRSIESQYGVSLNTARADVKMLVDAGLLTETGREVNMKVYSWSGK,-0.22
6,HMLSDSDTLRDLYLSEQIWNVGDLIRVKGKNDDTHPSWEIIRRGTNYITAIDENYKSHKVWLHDIDI,-1.4
7,HMLSEKELLELLNRAKSNYNGITKKGIEAIALKYQGYSNVEIANLYHVKANHISAWISRARSRLKADY,-0.0621
8,HMLSNLYAVLGVGRRATPDEITAAFDAWNARADAGEPIDDPLWERVRYAWDVLSSPSRRDLYDSLVDDATG,-2.25
9,HMLSSREEKILNYLNEHQIITRKKAQELLETSQSTAGRVLKIMVDNGLIVQYGGSRSIWYELIK,-0.269
10,HMLSTGIIIGDNVALRKTASSNGGIITRLDEGTVVKILASNVNAEWYQVEAGTKTGYVNRLYVNID,-0.345
11,HMLSTGQLIRYYRKRAGMTQAELAEEVEMSEPGIRNYELGNRTPSKAQLSAIARGLGIEPEALI,-0.0764
12,HMLSVKEQTYQIIKEKILNQEYPAGARININELAEELGISNSPIREALSLLEQQGLVISNRSSGATVT,-0.772
13,HMLSVLKNVDVNSLSDDKIKTYWQQIQKSGYTLDEVEVLAEAQGISPLKIAAFKRRVQSLQQSLQT,-0.018
14,HMLSYDDTVVIGRNLLENAMKQKNIALEQLTDEVLARLAKELQVESVEAMYAGIGSGKRPSSFIINRLEAH,-0.454
15,HMLSYFKIIKNGLVREGPASYYKIAENLEIGTIVQAFEKHDDWYLIKTHSGRIGWIVASDVTPQV,0.36
16,HMLTAHEAILKELRKMLLTGVLSPGEAVRPEIIGESFGVSAVPVREALRILEGEGQVLNRPHKGYVVT,-0.482
17,HMLTANPEEVVNRLTSAGEVGVRPLLDVDDPINAISTLLAIREDVYKQFAQFDTVGKSPSEIAHEIDDFL,-0.162
18,HMLTEERLQIITDTVNSRSSVTIAELSRILDVSPSTVKRDLNILAEAGKITKVRGGAIALGE,0.164
19,HMLTGDVDRYKDFFIALEKTSPVPIGFEKIIGGAHGYYHLEDKRIAIDEGMSELQTLKTAIHEIAHAKLHD,-0.123

row,Sequence,soluble fraction (log2)
1,HMLTGNTAKLFAHLVEVMNPKEFVKINRQTVIVEAGIPRGSVGAAIAKLLETGHLIANASGAYKLT,0.0211
2,HMLTIEEYLTQLKKLMKDRDAATVRDALSDAEEHLRNAMAGEDPSRLDGIIEEYGSPEEIAAAYKIMEEHT,-0.715
3,HMLTIQNYFNQVKNIDWEQVPAALSKGHQLVEGASQNNWSAYHSNANIQRVVEAYFQKLNDYLEKN,-0.168
4,HMLTKGDRQSIRDSIIYMVGNAPRTLDYIVAESRYSEEDVIEAVRSLLSSHILSIDDSDMISLTRK,-0.362
5,HMLTNNYKNDKALRFAKNHGIHESNILKLVSLYENAPEKGFNAQSIAELLGITPRSASRILVKLLQHNLIR,0.381
6,HMLTPSRVLPYLFEDSFFIDTLSLEKDQVVGFLEYIDERLPPQDLMNKSKEFELIDYLINESEAYLSQ,-0.311
7,HMLTQEEITRRRGEILTAAMGVILRKGFLETSMREIAEAAGVGKSTLYDYFPSKDEIMIAYVVD,-0.869
8,HMLTRYNVNYYYNGEILQRRKVAEGSAAERITYLSGSLEVTDWYTEADLLRKYDFTEPVTGDLNLYAFARI,-0.556
9,HMLTSAQLAEIRQAVRAGQASVVEDLLKNGASPNFRMENGDTGFTYAVRADTPQVAEALLKSGKL,-0.00206
10,HMLTTIRKATVNDKTRIMEIYAYARQFMAEHGNPNQWKNNNPSEETIDNDIAKQEMYVIETDGEVHAVFY,-1.42
11,HMLVDWNYLEGKRGVTTTPLTPSGKARFGDDVVNVLSDGVLVSTGTPVRVLQVLGNRVLVEPLDG,0.0163
12,HMLVGRDPQALILGSMPSEKSLEEDEYYAHPRNRFWSLMNWLLAGNKTRPAYKTGIEILSSHGIALWV,-0.578
13,HMLVIMKTGASEEEIGRVIERIEGEGLSAHVSRGTERTVIGVIGQGVDVHRIAGVLGGMSGVESLVPIS,0.0269
14,HMLVLAENMDVIFTRRTLDDHVVVDYKTTIGEMVKNDEIKGENMDELISAVEKDGYELVSSTSGEIIFLND,-0.704
15,HMLVVEPSAELKTIIDKTASFVARNGPEFEARIKNEQNNAKFSFLQPNDPFNPYYRAKIVELGGTV,-0.174
16,HMLVYQRLDKDNFIFEGKTLLNDIYKILDIESNYFEAIRGEADSIAGLLLEIAKSIPTINTEF,-0.571
17,HMLYEDVQVPNVRYWKSRDAKKQLEDLGLRVLTEHVNDAYIQSDQVIRTSPEIGDTLRTGDTVTLYVSDG,0.146
18,HMMKLSKRQEQIIAVVKEHQPVSGERISDILAVSRATLRSDLSFLTLSGILKASPKVGYTYES,≥ 0.43
19,HMMLVKKMLNGIMMKEITIKELADQYDVSTRTIQLKIKKLGYEWDSKESIYRYVGKESEPLDVDFSTLI,-1.47
